This is an account of results in US20100061942A1 (UNIVERSITY OF MEDICINE AND DENTISTRY OF NEW JERSEY, published 2010).

In the test the target is human STIM1 (human, UniProt Q13586 23-685, limits assumed). The experiment in a line: co-immunoprecipitation from CHO cell lysates, Western blot; repeated with cross-linker DSP and different detergents. The procedure:
Next, the interaction of P311 with SOCE molecular machinery was examined experimentally. The interaction of P311 with known components of SOCE, such as STIM1 and Orai1, was studied. A GFP-myc-Orai1 plasmid and the mammalian expression plasmid containing the human STIM1 cDNA (OriGene, Inc.) were used. The plasmids were transfected into CHO cells and 36 hours after transfection, total cell lysates from CHO cells transiently expressing GFP-myc-Orai1 were incubated with either a polyclonal antibody against P311, or an anti-myc monoclonal antibody, with normal rabbit IgG serving as the control. […] Similar results were obtained when co-IP assays were repeated using reversible cross-linker DSP and different detergents in cell lysis buffer, including Triton X-100, NP-40 and CHAPS.
For orientation: A western blot detects proteins with antibodies after separation by electrophoresis.

human STIM1, sequence (Q13586 23-685 limits assumed): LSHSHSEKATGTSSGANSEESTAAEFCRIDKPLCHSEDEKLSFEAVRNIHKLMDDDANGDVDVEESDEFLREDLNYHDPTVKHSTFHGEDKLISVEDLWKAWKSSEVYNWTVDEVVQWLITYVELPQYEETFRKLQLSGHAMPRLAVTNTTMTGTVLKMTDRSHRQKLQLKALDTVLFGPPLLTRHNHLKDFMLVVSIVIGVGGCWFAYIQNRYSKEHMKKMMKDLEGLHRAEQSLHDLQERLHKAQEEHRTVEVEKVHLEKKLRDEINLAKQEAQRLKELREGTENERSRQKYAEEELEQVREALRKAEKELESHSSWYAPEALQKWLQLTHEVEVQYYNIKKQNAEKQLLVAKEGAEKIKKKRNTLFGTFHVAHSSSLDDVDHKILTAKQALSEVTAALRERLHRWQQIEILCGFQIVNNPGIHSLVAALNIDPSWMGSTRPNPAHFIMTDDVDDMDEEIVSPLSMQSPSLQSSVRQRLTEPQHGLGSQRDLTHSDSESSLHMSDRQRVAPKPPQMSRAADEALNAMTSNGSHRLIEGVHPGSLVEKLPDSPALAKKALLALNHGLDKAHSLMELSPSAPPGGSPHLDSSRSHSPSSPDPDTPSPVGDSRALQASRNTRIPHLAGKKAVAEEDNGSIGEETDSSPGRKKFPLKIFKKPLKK

B1: P311 (endogenous P311 present in CHO cells) (other)
chain: MVYYPGLLVWVSQEPFLYKEMEGSLTKGRLPVPKEVNRKKLEEARAASMTPPGSHELCFPNISYL
In the case of B1, the binding result was “no binding”.
